Results: PMC7112944 (Science Advances, 2020)

Columns and labels:
N_(460–525) [1] = target: T1, N_(460–525) (measles virus, UniProt P04851 460-525); experiment: ITC
T1 sequence (looked up): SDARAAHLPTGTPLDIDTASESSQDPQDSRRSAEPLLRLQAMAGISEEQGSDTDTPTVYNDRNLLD

N_(460–525) [2] = target: T1, N_(460–525); experiment: ITC + NMR titration

B1: Phosphoprotein XD domain (PXD), P_(457–507) (domain or fragment, measles virus, UniProt P03422 457-507, looked up)
chain: GPASRSVIRSIIKSSRLEEDRKRYLMTLLDDIKGANDLAKFHQMLMKIIMK
With B1 the dH (N_(460–525) [1]) was -10.46 ± 0.0465 kcal/mol, the “stoichiometry N” value (N_(460–525) [1]) was 0.927 sites and the Kd (N_(460–525) [2]) was ~5 µM.
